The source of these data is patent US20190352642A1.

The target of this test is complement C1q (in Hamster complement, Abcham Ab155111) (hamster). In words: cell-based or functional assay.

Regarding “h-IgG (Sigma Aldrich), chemically coupled to human red blood cells (antibody)”, the complement-induced hemolysis of IgG coupled RBC (OD 540 nm, against 100% hemolysis by Tween-20); 6 nm activated IgG (about 5x10^6 molecules per RBC) was found to be 90%; the complement-induced hemolysis of IgG coupled RBC; 1.2 nm activated IgG (about 1x10^6 molecules per RBC) lay within 30 to 40%; the complement-induced hemolysis when about 1-2x10^4 IgG molecules were bound per one RBC (not shown) lay within 85 to 95%.

“h-IgG Fc fragment (Sigma Aldrich), chemically coupled to human red blood cells” yielded a complement-induced hemolysis of Fc coupled RBC (OD 540 nm, against 100% hemolysis by Tween-20); 6 nm activated Fc (about 5x10^6 molecules per RBC) of 80% and a complement-induced hemolysis of Fc coupled RBC; 1.2 nm activated Fc (about 1x10^6 molecules per RBC) of 30 to 40%.
